Paper PMC6593972, “Two-Step Activation Mechanism of the ClpB Disaggregase for Sequential Substrate Threading by the Main ATPase Motor” (Cell Reports, 2019)

Target: the molecule itself
Assay: cryo-EM structure; ClpB hexamer with a 20-fold molar excess of casein, 10 min at room temperature in 25 mM Tris-HCl pH 7.4, 25 mM KCl, 10 mM MgCl2, 2 mM ATPγS, 1 mM DTT; single-particle cryo-EM

B1: ClpB-DWB-K476C (natural protein)
chain: not shown
notes: ClpB, bacterial disaggregase, with K476C (M-domain) and the double Walker B mutations E279A/E678A; ATPase-deficient variant used to trap substrate for cryo-EM in the presence of ATPγS; also called ClpB-K476C-DWB; ClpB-K476C/E279A/E678A; source: E. coli ΔclpB::kan cells, purified (Ni-IDA, size exclusion chromatography Superdex S200)
- stoichiometry N: 6
